From patent US20260001928A1 (CORTERIA PHARMACEUTICALS, priority 2022, published 2026)
*1 amine or outer side, *2 acyl side, *3 side chain or, on linkers, in order; H or OH if unused. Where no end group is shown, it is not given here. Side-chain parts run from the residue outwards. [ ]: non-standard residue; d: D form. The star is where a group is joined. C18 diacid = O=C(O)CCCCCCCCCCCCCCCCC(=O)*; C16 diacid = O=C(O)CCCCCCCCCCCCCCC(=O)*; γGlu = O=C(O)[C@H](CCC(=O)[*:2])N[*:1]; Pentanoyl = CCCCC(=O)*; AEEA = NCCOCCOCC(=O)O; Propionyl = CCC(=O)*

T1: CRF1R receptor (UniProt P34998 24-415, limits assumed)
T1 sequence (looked up): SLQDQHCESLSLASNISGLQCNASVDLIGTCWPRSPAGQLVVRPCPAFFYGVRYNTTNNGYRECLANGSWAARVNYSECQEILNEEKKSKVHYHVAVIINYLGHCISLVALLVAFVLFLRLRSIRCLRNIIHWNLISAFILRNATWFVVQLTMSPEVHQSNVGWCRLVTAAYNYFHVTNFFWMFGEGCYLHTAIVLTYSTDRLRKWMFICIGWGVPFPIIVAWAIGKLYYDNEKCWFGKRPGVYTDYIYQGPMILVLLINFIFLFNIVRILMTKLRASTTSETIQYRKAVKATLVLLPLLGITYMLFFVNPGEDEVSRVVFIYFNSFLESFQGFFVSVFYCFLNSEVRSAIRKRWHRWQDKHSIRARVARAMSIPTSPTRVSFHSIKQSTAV


What was measured:
CRF1R receptor = molecular target: T1, CRF1R receptor; test: cell-based or functional assay
[1] = molecular target: human corticotropin-releasing factor 2a (CRF2a receptor) (human), Q13324; test: cell-based or functional assay
Chain of human corticotropin-releasing factor 2a (CRF2a receptor) (human), Q13324 (Q13324 20-411): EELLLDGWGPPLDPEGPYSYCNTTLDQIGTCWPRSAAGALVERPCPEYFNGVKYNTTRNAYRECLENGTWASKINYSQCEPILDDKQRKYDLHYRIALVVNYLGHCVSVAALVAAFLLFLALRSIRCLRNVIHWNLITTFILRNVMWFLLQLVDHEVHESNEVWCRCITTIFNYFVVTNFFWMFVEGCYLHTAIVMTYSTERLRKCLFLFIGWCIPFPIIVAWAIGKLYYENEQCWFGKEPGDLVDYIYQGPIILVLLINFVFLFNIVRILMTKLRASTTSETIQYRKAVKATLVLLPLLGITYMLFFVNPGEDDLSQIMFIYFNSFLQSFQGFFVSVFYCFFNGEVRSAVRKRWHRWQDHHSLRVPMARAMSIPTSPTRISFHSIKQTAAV

| Binder | Emax (% I) (CRF1R receptor) [%] | EC50 [nM] (cAMP) [1] |
| --- | --- | --- |
| Ac-VLSLD[dV]PIKLK([γGlu-C16 diacid])KILLEQEKQKKQREQAETNKQILAQV-NH2 (SMILES CC[C@H](C)[C@H](NC(=O)[C@H](CCC(N)=O)NC(=O)[C@H](CCCCN)NC(=O)[C@H](CC(N)=O)NC(=O)[C@@H](NC(=O)[C@H](CCC(=O)O)NC(=O)[C@H](C)NC(=O)[C@H](CCC(N)=O)NC(=O)[C@H](CCC(=O)O)NC(=O)[C@H](CCCNC(=N)N)NC(=O)[C@H](CCC(N)=O)NC(=O)[C@H](CCCCN)NC(=O)[C@H](CCCCN)NC(=O)[C@H](CCC(N)=O)NC(=O)[C@H](CCCCN)NC(=O)[C@H](CCC(=O)O)NC(=O)[C@H](CCC(N)=O)NC(=O)[C@H](CCC(=O)O)NC(=O)[C@H](CC(C)C)NC(=O)[C@H](CC(C)C)NC(=O)[C@@H](NC(=O)[C@H](CCCCN)NC(=O)[C@H](CCCCNC(=O)CC[C@H](NC(=O)CCCCCCCCCCCCCCC(=O)O)C(=O)O)NC(=O)[C@H](CC(C)C)NC(=O)[C@H](CCCCN)NC(=O)[C@@H](NC(=O)[C@@H]1CCCN1C(=O)[C@H](NC(=O)[C@H](CC(=O)O)NC(=O)[C@H](CC(C)C)NC(=O)[C@H](CO)NC(=O)[C@H](CC(C)C)NC(=O)[C@@H](NC(C)=O)C(C)C)C(C)C)[C@@H](C)CC)[C@@H](C)CC)[C@@H](C)O)C(=O)N[C@@H](CC(C)C)C(=O)N[C@@H](C)C(=O)N[C@@H](CCC(N)=O)C(=O)N[C@H](C(N)=O)C(C)C) [SEQ ID NO 33] | 13 | 0.47 |
| VLSLD[dV]PIKLK([AEEA-AEEA-γGlu-C18 diacid])KILLEQEKQKKQREQAETNKQILAQV-NH2 (N-terminus assumed; SMILES CC[C@H](C)[C@H](NC(=O)[C@H](CCC(N)=O)NC(=O)[C@H](CCCCN)NC(=O)[C@H](CC(N)=O)NC(=O)[C@@H](NC(=O)[C@H](CCC(=O)O)NC(=O)[C@H](C)NC(=O)[C@H](CCC(N)=O)NC(=O)[C@H](CCC(=O)O)NC(=O)[C@H](CCCNC(=N)N)NC(=O)[C@H](CCC(N)=O)NC(=O)[C@H](CCCCN)NC(=O)[C@H](CCCCN)NC(=O)[C@H](CCC(N)=O)NC(=O)[C@H](CCCCN)NC(=O)[C@H](CCC(=O)O)NC(=O)[C@H](CCC(N)=O)NC(=O)[C@H](CCC(=O)O)NC(=O)[C@H](CC(C)C)NC(=O)[C@H](CC(C)C)NC(=O)[C@@H](NC(=O)[C@H](CCCCN)NC(=O)[C@H](CCCCNC(=O)COCCOCCNC(=O)COCCOCCNC(=O)CC[C@H](NC(=O)CCCCCCCCCCCCCCCCC(=O)O)C(=O)O)NC(=O)[C@H](CC(C)C)NC(=O)[C@H](CCCCN)NC(=O)[C@@H](NC(=O)[C@@H]1CCCN1C(=O)[C@H](NC(=O)[C@H](CC(=O)O)NC(=O)[C@H](CC(C)C)NC(=O)[C@H](CO)NC(=O)[C@H](CC(C)C)NC(=O)[C@@H](N)C(C)C)C(C)C)[C@@H](C)CC)[C@@H](C)CC)[C@@H](C)O)C(=O)N[C@@H](CC(C)C)C(=O)N[C@@H](C)C(=O)N[C@@H](CCC(N)=O)C(=O)N[C@H](C(N)=O)C(C)C) [SEQ ID NO 93] | 6 | 5.08 |

Further lines, results first:

| Emax (% I) (CRF1R receptor) [%] | EC50 [nM] (cAMP) [1] | Binder |
| --- | --- | --- |
| 0 | 1.48 | Propionyl-VLSLDVPIKLK([AEEA-AEEA-γGlu-C18 diacid])KILLEQEKQKKQREQAETNKQILAQV-NH2 (SMILES CCC(=O)N[C@H](C(=O)N[C@@H](CC(C)C)C(=O)N[C@@H](CO)C(=O)N[C@@H](CC(C)C)C(=O)N[C@@H](CC(=O)O)C(=O)N[C@H](C(=O)N1CCC[C@H]1C(=O)N[C@H](C(=O)N[C@@H](CCCCN)C(=O)N[C@@H](CC(C)C)C(=O)N[C@@H](CCCCNC(=O)COCCOCCNC(=O)COCCOCCNC(=O)CC[C@H](NC(=O)CCCCCCCCCCCCCCCCC(=O)O)C(=O)O)C(=O)N[C@@H](CCCCN)C(=O)N[C@H](C(=O)N[C@@H](CC(C)C)C(=O)N[C@@H](CC(C)C)C(=O)N[C@@H](CCC(=O)O)C(=O)N[C@@H](CCC(N)=O)C(=O)N[C@@H](CCC(=O)O)C(=O)N[C@@H](CCCCN)C(=O)N[C@@H](CCC(N)=O)C(=O)N[C@@H](CCCCN)C(=O)N[C@@H](CCCCN)C(=O)N[C@@H](CCC(N)=O)C(=O)N[C@@H](CCCNC(=N)N)C(=O)N[C@@H](CCC(=O)O)C(=O)N[C@@H](CCC(N)=O)C(=O)N[C@@H](C)C(=O)N[C@@H](CCC(=O)O)C(=O)N[C@H](C(=O)N[C@@H](CC(N)=O)C(=O)N[C@@H](CCCCN)C(=O)N[C@@H](CCC(N)=O)C(=O)N[C@H](C(=O)N[C@@H](CC(C)C)C(=O)N[C@@H](C)C(=O)N[C@@H](CCC(N)=O)C(=O)N[C@H](C(N)=O)C(C)C)[C@@H](C)CC)[C@@H](C)O)[C@@H](C)CC)[C@@H](C)CC)C(C)C)C(C)C) [SEQ ID NO 94] |
| 4 | 0.49 | Pentanoyl-VLSLDVPIKLK([AEEA-AEEA-γGlu-C18 diacid])KILLEQEKQKKQREQAETNKQILAQV-NH2 (SMILES CCCCC(=O)N[C@H](C(=O)N[C@@H](CC(C)C)C(=O)N[C@@H](CO)C(=O)N[C@@H](CC(C)C)C(=O)N[C@@H](CC(=O)O)C(=O)N[C@H](C(=O)N1CCC[C@H]1C(=O)N[C@H](C(=O)N[C@@H](CCCCN)C(=O)N[C@@H](CC(C)C)C(=O)N[C@@H](CCCCNC(=O)COCCOCCNC(=O)COCCOCCNC(=O)CC[C@H](NC(=O)CCCCCCCCCCCCCCCCC(=O)O)C(=O)O)C(=O)N[C@@H](CCCCN)C(=O)N[C@H](C(=O)N[C@@H](CC(C)C)C(=O)N[C@@H](CC(C)C)C(=O)N[C@@H](CCC(=O)O)C(=O)N[C@@H](CCC(N)=O)C(=O)N[C@@H](CCC(=O)O)C(=O)N[C@@H](CCCCN)C(=O)N[C@@H](CCC(N)=O)C(=O)N[C@@H](CCCCN)C(=O)N[C@@H](CCCCN)C(=O)N[C@@H](CCC(N)=O)C(=O)N[C@@H](CCCNC(=N)N)C(=O)N[C@@H](CCC(=O)O)C(=O)N[C@@H](CCC(N)=O)C(=O)N[C@@H](C)C(=O)N[C@@H](CCC(=O)O)C(=O)N[C@H](C(=O)N[C@@H](CC(N)=O)C(=O)N[C@@H](CCCCN)C(=O)N[C@@H](CCC(N)=O)C(=O)N[C@H](C(=O)N[C@@H](CC(C)C)C(=O)N[C@@H](C)C(=O)N[C@@H](CCC(N)=O)C(=O)N[C@H](C(N)=O)C(C)C)[C@@H](C)CC)[C@@H](C)O)[C@@H](C)CC)[C@@H](C)CC)C(C)C)C(C)C) [SEQ ID NO 96] |
